Numbering of substitutions follows the chain as printed.
T1: human BCMA-MMH (extracellular domain of human BCMA with C-terminal myc-myc-hexahistidine tag) (human)
T1 construct: Monomeric antigen; also called hBCMA.mmh; hBCMA.mmH
T1 chain: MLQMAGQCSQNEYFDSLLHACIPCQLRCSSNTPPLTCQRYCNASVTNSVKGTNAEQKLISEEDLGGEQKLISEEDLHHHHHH

T2: human BCMA-MFC (extracellular domain of human BCMA with C-terminal mFc tag) (human)
T2 construct: also called hBCMA.mFc
T2 chain: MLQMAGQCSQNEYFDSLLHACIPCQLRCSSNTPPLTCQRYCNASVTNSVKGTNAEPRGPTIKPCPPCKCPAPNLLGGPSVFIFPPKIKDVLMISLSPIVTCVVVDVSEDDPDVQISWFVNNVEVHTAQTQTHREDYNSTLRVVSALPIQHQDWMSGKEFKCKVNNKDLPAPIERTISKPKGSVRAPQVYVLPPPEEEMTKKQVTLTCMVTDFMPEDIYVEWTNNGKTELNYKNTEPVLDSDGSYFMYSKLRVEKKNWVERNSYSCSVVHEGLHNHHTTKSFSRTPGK

T3: mouse BCMA-MFC (BCMA with C-terminal mFc tag) (mouse)
T3 construct: Tested at a single concentration of 30 nM; also called mBCMA.mFc
T3 chain: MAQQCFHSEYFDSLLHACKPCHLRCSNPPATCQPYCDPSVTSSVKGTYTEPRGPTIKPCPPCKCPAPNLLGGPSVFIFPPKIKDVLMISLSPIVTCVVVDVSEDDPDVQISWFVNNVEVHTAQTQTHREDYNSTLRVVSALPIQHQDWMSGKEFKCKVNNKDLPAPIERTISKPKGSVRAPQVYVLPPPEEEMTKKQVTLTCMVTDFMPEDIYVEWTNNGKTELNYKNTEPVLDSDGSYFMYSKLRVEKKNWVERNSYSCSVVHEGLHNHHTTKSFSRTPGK

T4: human BCMA on the surface of cell lines (NCI-H929, MM.1S, OPM-2, RPMI-8226, Daudi, Raji, MOLP-8, U266) (human, UniProt Q02223 1-184)
T4 sequence: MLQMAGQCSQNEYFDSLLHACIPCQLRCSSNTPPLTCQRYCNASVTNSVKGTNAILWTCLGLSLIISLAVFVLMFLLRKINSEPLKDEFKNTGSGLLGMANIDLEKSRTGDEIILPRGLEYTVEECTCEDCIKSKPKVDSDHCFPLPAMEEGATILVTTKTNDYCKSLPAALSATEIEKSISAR

B1: mAb16732 (REGN4514) (antibody, V domains shown)
VH: EVQLVESGGGLVQPGRSLRLSCAASGFTFDDYAMHWVRQAPGKGLEWVSGISWNSGNMGYADSVKGRFTISRDNAKNSLFLQMHSLRAEDTAFYYCAKVRLTAFDFWGQGTLVTVSS
VL: DIQMTQSPSSLSASVGDRVTITCRTSQSIGNYLNWFQQKPGKAPKLLIYTASSLQNGVPSRFTGSGSGTDFTLTISSLQPEDFVIYYCQQSFSTPYTFGQGTKLEIK
notes: Anti-BCMA monoclonal antibody; Captured by anti-human Fc in SPR
B2: mAb21581, parental bivalent anti-BCMA antibody (antibody, V domains shown)
VH: EVQLVESGGGLVQPGGSLRLSCAASGFTFSNFWMTWVRQAPGKGLEWVANMNQDGSEKYYVDSVKGRFTISRDNAKSSLYLQMNSLRAEDTAVYYCARDREYCISTSCYDDFDYWGQGTLVTVSS
VL: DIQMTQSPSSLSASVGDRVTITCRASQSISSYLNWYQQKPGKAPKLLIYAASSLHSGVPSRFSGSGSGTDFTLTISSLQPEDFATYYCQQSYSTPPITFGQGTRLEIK
B3: mAb16747 (REGN4515) (antibody, V domains shown)
VH: QVQLVESGGGLVKPGGSLRLSCAASGFTFSDYYISWIRQAPGKGLEWVSYISSSGSSIKYADSVKGRFTISRDNAKNSLYLQMNSLRAEDTAVYYCAREGGNYGMDVWGQGTTVTVSS
VL: DIQMTQSPSSVSASVGDRVTITCRASQGINNWLVWYQQKPGKAPKLLIYAATSLQSGVPSRFSGSGSGTDFTLTISSLQPEDFATYYCQQANSFPPTFGQGTKLEIK
notes: as for B1
B4: mAb16711 (antibody, V domains shown)
VH: QVQLVESGGGVVQPGRSLRLSCAASGFTFSTYGIHWVRQAPGKGLEWVAVILHDGSSNYYAESVKGRFIISRDNSKNTLYLQMNSLRAEDTALYYCTKRYSEAAGPNWFDPWGQGTLVTVSS
VL: DIQMTQSPSSVSASVGDRVTITCRASRGISSWLAWYQQKPGKAPKLLIHAASSLQSGVPSRFSGSGSGTDFTLTISSLQPEDFATYYCQQAISFPFTFGPGTKVDIK
notes: as for B1
B5: mAb16716 (antibody, V domains shown)
VH: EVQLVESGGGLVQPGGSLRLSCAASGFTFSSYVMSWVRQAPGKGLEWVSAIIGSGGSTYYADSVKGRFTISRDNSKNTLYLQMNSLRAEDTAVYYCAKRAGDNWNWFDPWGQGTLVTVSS
VL: B4 VL with V15L, R27Q, Q38R, H49Y, T69A, I92K, F94V
notes: as for B1

Legend:
[1] = target: T1, human BCMA-MMH (extracellular domain of …); assay: SPR Biacore, 25 C, mAb captured via anti-hFc
Procedure: (§1) The CM5 Biacore sensor surface was derivatized by amine coupling with a monoclonal mouse anti-human Fc antibody (GE, #BR-1008-39) to capture purified anti-BCMA mAbs and anti-BCMA×anti-CD3 bispecific mAbs. All Biacore binding studies were performed in a buffer composed of 0.01M HEPES pH 7.4, 0.15M NaCl, 3 mM EDTA, 0.05% v/v Surfactant P20 (HBS-ET running buffer). […] Antigen samples were then injected over the anti-BCMA and anti-BCMA×anti-CD3 bispecific mAbs captured surfaces at a flow rate of 30 μL/minute. Antibody-reagent association was monitored for 5 minutes while dissociation in HBS-ET running buffer was monitored for 10 minutes. All of the binding kinetics experiments were performed at 25° C. Kinetic association (kₐ) and dissociation (kd) rate constants were determined by fitting the real-time sensorgrams to a 1:1 binding model using Scrubber 2.0c curve fitting software. Binding dissociation equilibrium constants (KD) and dissociative half-lives (t1/2) were calculated from the kinetic rate constants as: […]

[2] = target: T2, human BCMA-MFC (extracellular domain of …); assay: SPR Biacore, 25 C, mAb captured via anti-hFc
Procedure: as §1

[3] = target: T5, monkey BCMA-MFC (monkey BCMA with C-terminal mFc tag) (monkey); assay: SPR Biacore, 25 C, mAb captured via anti-hFc
T5 construct: also called mfBCMA.mFc
Procedure: as §1

[4] = target: T3, mouse BCMA-MFC (BCMA with C-terminal …); assay: SPR Biacore, 25 C, mAb captured via anti-hFc
Procedure: as §1

[5] = target: T4, human BCMA on the surface of cell lines …; assay: cell-based or functional assay
[6] = target: T4, human BCMA on the surface of cell lines …; assay: cell-based or functional assay; remark: listed apart in the source
[7] = target: T4, human BCMA on the surface of cell lines …; assay: cell-based or functional assay; remark: listed apart in the source
[8] = target: T4, human BCMA on the surface of cell lines …; assay: cell-based or functional assay; remark: listed apart in the source
[9] = target: T6, monkey BCMA-MMH (monkey BCMA with C-terminal myc-myc-hexahistidine tag) (monkey); assay: SPR Biacore, 25 C, mAb captured via anti-hFc
T6 construct: Monomeric antigen; also called mfBCMA.mmh
Procedure: as §1

Row | Binder | 90 nM hBCMA.mmh Bind (RU) [1] | Kd [1] | koff [1] | kon [1] | t1/2 [1] | 30 nM hBCMA.mFc Bind (RU) [2] | Kd [2] | koff [2] | kon [2] | t1/2 [2] | 30 nM mfBCMA.mFc Bind (RU) [3] | 30 nM mBCMA.mFc Bind (RU) [4] | Kd [4] | koff [4] | kon [4] | t1/2 [4] | MFI fold change over cells incubated in media only, NCI-H929, overnight with 67 nM antibody [5] | MFI fold change over cells incubated in media only, NCI-H929, overnight with 667 nM antibody [5] | MFI fold change over cells incubated in media only, Molp8, overnight with 67 nM antibody [6] | MFI fold change over cells incubated in media only, Molp8, overnight with 667 nM antibody [6] | also measured
1 | B1 | 25.3 RU | 2.69 nM | 0.00285 s⁻¹ | 1.06e+06 M⁻¹ s⁻¹ | 4.1 min | 124 RU | 0.0422 nM | 4.53e-05 s⁻¹ | 1.07e+06 M⁻¹ s⁻¹ | 255 min | 40.3 RU | 110 RU | 0.677 nM | 0.000269 s⁻¹ | 397000 M⁻¹ s⁻¹ | 43 min | – | – | – | – | Kd [3]: 14.7 nM; koff [3]: 0.00724 s⁻¹; kon [3]: 492000 M⁻¹ s⁻¹; t1/2 [3]: 1.6 min
2 | B2 | – | – | – | – | – | – | – | – | – | – | – | – | – | – | – | – | 1.2 fold | 1.4 fold | 2.3 fold | 3.7 fold | MFI fold change over cells incubated in media only, U266, overnight with 67 nM antibody [7]: 1.8 fold; MFI fold change over cells incubated in media only, U266, overnight with 667 nM antibody [7]: 2.3 fold; MFI fold change over cells incubated in media only, MM1S, overnight with 67 nM antibody [8]: 7.3 fold; MFI fold change over cells incubated in media only, MM1S, overnight with 667 nM antibody [8]: 7 fold
3 | B3 | 31.4 RU | 2.84 nM | 0.00247 s⁻¹ | 869000 M⁻¹ s⁻¹ | 4.7 min | 146 RU | 0.0633 nM | 8.95e-05 s⁻¹ | 1.41e+06 M⁻¹ s⁻¹ | 129 min | 101 RU | 108 RU | 4.42 nM | 0.00418 s⁻¹ | 947000 M⁻¹ s⁻¹ | 2.8 min | 1.8 fold | 2.1 fold | 2.2 fold | 0.6 fold | MFI fold change over cells incubated in media only, U266, overnight with 67 nM antibody [7]: 1.5 fold; MFI fold change over cells incubated in media only, U266, overnight with 667 nM antibody [7]: 1.7 fold; Kd [3]: 3.37 nM; koff [3]: 0.00716 s⁻¹; kon [3]: 2.13e+06 M⁻¹ s⁻¹; t1/2 [3]: 1.6 min
4 | B4 | 22.2 RU | 1.73 nM | 0.00347 s⁻¹ | 2.01e+06 M⁻¹ s⁻¹ | 3.3 min | 114 RU | 0.103 nM | 0.00019 s⁻¹ | 1.85e+06 M⁻¹ s⁻¹ | 60.8 min | 0.9 RU | 90 RU | 1.02 nM | 0.0011 s⁻¹ | 1.07e+06 M⁻¹ s⁻¹ | 10.5 min | 2.8 fold | 2.1 fold | 3.5 fold | 3 fold | MFI fold change over cells incubated in media only, U266, overnight with 67 nM antibody [7]: 2.2 fold; MFI fold change over cells incubated in media only, U266, overnight with 667 nM antibody [7]: 2.2 fold; 90 nM mfBCMA.mmh Bind (RU) [9]: -0.5 RU; binding result [3]: no binding (tested: 30 nM)
5 | B5 | 26.4 RU | 3.56 nM | 0.00299 s⁻¹ | 841000 M⁻¹ s⁻¹ | 3.9 min | 120 RU | 0.0968 nM | 8.35e-05 s⁻¹ | 862000 M⁻¹ s⁻¹ | 138 min | – | 33.4 RU | 18.8 nM | 0.00385 s⁻¹ | 205000 M⁻¹ s⁻¹ | 3 min | – | – | – | – | 90 nM mfBCMA.mmh Bind (RU) [9]: 0.8 RU; binding result [9]: no binding (tested: 90 nM)
